Where “and” joins values, the source holds several entries; their conditions need not be identical. Equal values may be shown once.
Tested on: Bacillus subtilis DB104 (SP-AmyQ fusion secretion)
Assay: AmyQ secretion efficiency, weighted average sort bin (1 = best secretion, 10 = worst) (bin number (weighted average, 1-10)); higher = lower secretion efficiency
Outline: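 A B. subtilis DB104 library carrying amyE-integrated fusions of designed signal peptides to mature AmyQ was encapsulated at about 0.3 cells per ~65 nL alginate bead with fluorescein-starch and grown about 13 h at room temperature. Following nile red staining, occupied beads were flow-sorted as large particles into 10 equally populated bins by green/red fluorescence ratio, and the bin amplicons were Illumina-sequenced. The secretion score is the read-frequency-weighted average bin number normalised to beads per bin, leaving out low-abundance sequences.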

Going from MLCVMMLLFSAIASFPVSAQVKDQ to MKLKKRVSMFLVALTMCGGLFVTPTKAVKT, the AmyQ secretion efficiency falls from 5.88 to 3.85.

Going from MKSKWMSGLLLVAVGFSFTQVMVHLGET to MRNLTKTSLLLAGLCTAAQMVFVTHASAAKR, the AmyQ secretion efficiency falls from 7.17 to 2.59.

Going from MKTLRTLCVLMILSGVIFFGLKDIDAKDI to MKKMLGKLLITAGILVFFAVVVKDVFAAGL, the AmyQ secretion efficiency rises from 6.44 to 7.15.

Compared with MKRLLSTLLIGIMLLTFAPSAFAAQD, MKKRKKKFFGPIILAFILFAGAIAIPS is higher in AmyQ secretion efficiency: 1.6 for the first, 6.45 for the second.

First: MKRTWNVCLIALLMVLLVAIFVTSPFHAEAKKP
Second: MKKKLAAGLTASAIVGTTLVVTPAERATI
The AmyQ secretion efficiency of the first is lower: 2.11 for the first, 5.86 for the second.

First: MRSYIKVLTMCFLGLILFVPTALTDNS
Second: MMKKLFHSTLIVLLFFSFFGVIPIHAKKQ
The AmyQ secretion efficiency of the first is higher: 5.81 for the first, 1.92 for the second.

Going from MSMWMITIAMLILAGIALFVFISPLKSHKT to MKRLLSTLLIGIMLLTFAPSSFAKQD, the AmyQ secretion efficiency falls from 7.42 to 2.65.

Compared with MKKVMLATALFLGLTPDGANAADL, MRKRTKTSLLLAGLCTAAQMVFVTHASAEES is lower in AmyQ secretion efficiency: 4 for the first, 3.51 for the second.

Compared with MLKRTSFVSSLFISSAVLLLPSGQAHAQSA, MKKQRKIITATTAVVLGSTLFAGAASAQSI is higher in AmyQ secretion efficiency: 1.64 for the first, 1.81 for the second.

Going from MLKRTSFVSSLFISSAVLLSILLPSGQTHAQSA to MHLIRAAGAVCLAVVLIAGCRFNEDQHQAELENT, the AmyQ secretion efficiency rises from 1.61 to 6.53.

First: MKKLTLAFLVFLSVVLVTTVFLVKQQESVAQAKQL
Second: MTKKTKNRLISSVLSTVVISSLLFPGAAGASSK
The AmyQ secretion efficiency of the first is higher: 3.11 for the first, 1.56 for the second.

Going from MFMLFMNASLVLFAVVFVFAVKGAPAKAETH to MKKLVLCVSILAVILSGVQLTQLS, the AmyQ secretion efficiency rises from 5.11 to 5.61.

First: MMKKLFHSTQGRQSFFSFFGVQPIHAKKQ
Second: MRKKLKWLSFLLGFIILLFLFTLTILKYQFSNNDS
The AmyQ secretion efficiency of the first is higher: 7.5 for the first, 7.28 for the second.

Going from MKKRFSLIMMTGLLFGLTSPAFAAPK to MKKVKKRRIICLSLILSVLAAPPSGAKAESV, the AmyQ secretion efficiency rises from 1.77 to 1.81.

Compared with MTMLRKIIGWILLLCIIPLFAFTVIASWKEV, MLKKVILAAFILVGSTLGRRKRKSRASAKHV is higher in AmyQ secretion efficiency: 5.23 for the first, 5.28 for the second.

First: MKSKWMSGLLLVAVGFSFTQVMAHAGET
Second: MKKKLAAGLTASAIVGTTLVRKKKAEAATI
The AmyQ secretion efficiency of the first is lower: 7.06 for the first, 8.06 for the second.

Compared with MKLRKVLTGSVLSLGLLVSASPIFATSP, MRSYIKVLTMCFLGLILFVPTALAARK is higher in AmyQ secretion efficiency: 1.63 for the first, 5.25 for the second.

First: MIAYFGKCLLLVTIMFLGVLFGMWQANHG
Second: MTMLRKIIGWILLLCIIPLFAFTVIESGKEV
The AmyQ secretion efficiency of the first is higher: 7.19 for the first, 6.44 for the second.

First: MKKRITYSLLALLAVVATDSSKAKAAEA
Second: MKKTGIRFLLVSFVLFFALSTGITGVQAAPA
The AmyQ secretion efficiency of the first is higher: 2.87 for the first, 1.8 for the second.

Going from MKVPKTMLLSTAAGLLLSLTATSASAHYV to MKKSAAVLLSLGLVSGFSYGAGHVAEAKTK, the AmyQ secretion efficiency falls from 5.6 to 2.59.

Compared with MKVCQKSIVRFLVFLIIFLFVIGTSVPFMANAQSD, MLKKIALTLCPAIVGSLLFFTAPDSAHVS is higher in AmyQ secretion efficiency: 2.68 for the first, 6.1 for the second.

Going from MRPVFPLILSAVLFLSCFFGARQTEASISKR to MQNRLFRVCFLAALIMAFTLPNSVYAQKP, the AmyQ secretion efficiency falls from 3 to 1.12.

Compared with MKKIWIGMLAAAVLLLITISVTAAMVPKVSLADAA, MKTKTGFIFSAILTLSIFAPNETFAQTA is lower in AmyQ secretion efficiency: 5 for the first, 1.63 for the second.

Going from MMKKGLLAGALTATVLFGTCKDAEAASQ to MKKVLMAFIICLSLILSVLAAPPSGIKAESV, the AmyQ secretion efficiency rises from 1.66 to 3.36.

Compared with MKKVMLATALFLGLTRRKANAADL, MKQIMIFLTSFMLLAMTGQTALAADE is lower in AmyQ secretion efficiency: 7.36 for the first, 3.7 for the second.

Going from “MIQKRKRTVSFRLVLMCTLLFVSLPITKTSAVNG [wt_amyQ]” to MKKWIYVVLVLSIAGIGGISVSAFSVHAASS, the AmyQ secretion efficiency rises from 1.16 to 5.09.

First: MKVCQKSIVRSGVSLIIGTFVISVPFMANAQSD
Second: MLKKKWMVGLLAGCLAAGGFSYNQFATEN
The AmyQ secretion efficiency of the first is lower: 2.46 for the first, 6.91 for the second.

Going from MRKTIFAFLTGLMMFGTITALSASPD to MLKKIALTLCPAIVGSLLFFTAPASSHVS, the AmyQ secretion efficiency falls from 5.45 to 4.06.

Compared with MGLGKKLSVAVAASFMSLSISLPGCQAAEG, MKKVLMAFIICLSLILSVLAAPPSGAKEESV is higher in AmyQ secretion efficiency: 1.48 for the first, 3.2 for the second.

Compared with MNLRKILLSSALSLVSAAPVLATSS, MAIIIAIIAAVIVIAALITFNVSNASPG is higher in AmyQ secretion efficiency: 3.92 for the first, 7.09 for the second.

Compared with MNKLKRLSMLTVMIASVFIFSSSHALAAQY, MFNRLFRVCFLAALIMAFRKKNSVYAQKP is higher in AmyQ secretion efficiency: 1.68 for the first, 7.12 for the second.

Going from MKKKQVMLALTAAAGLGLTALHSAPASKAAPL to MLKKKWMVGLLAGCLAAGGFSYNKFATEN, the AmyQ secretion efficiency rises from 4.06 to 7.42.

Going from MKKQIITATTAVVLGSTLFAVGAASAQSI to MKRLTLVCSIVFILFILFYDLKIGTDEASAKTA, the AmyQ secretion efficiency rises from 2.23 to 4.35.

First: MKKRLIAPMLLSAASLAFFATFMSGSAQAAAY
Second: MKKAAAVLLSLGLVFGFSYGAGHVYEAKTK
The AmyQ secretion efficiency of the first is lower: 3.39 for the first, 5.94 for the second.

Compared with MKKRFFGPIILAFILFAAIAIPS, MKVPKTMLLSTAAGLLLSLTATSVSAHRK is lower in AmyQ secretion efficiency: 6.38 for the first, 4.68 for the second.

Going from MGLGKKLSVAVAASFMSLSISLPGIQAAEG to MKLSVKIAGVLTVAAAAMTAKMYCTAKGN, the AmyQ secretion efficiency rises from 1.56 to 7.19.

First: MKWMCSICCAAVLLAGGAQQAEAV
Second: MFKKHTISLLIIFLLASAVLAKPGEAHTV
The AmyQ secretion efficiency of the first is higher: 2.93 for the first, 2.82 for the second.

Going from MKRFSTAYLLLGILCSAAVFLIPQPGRALGAEV to MKLRKVLTGSVLSLGLLEKDSPAFATSP, the AmyQ secretion efficiency rises from 2.89 to 6.38.

Going from MRKKRQVCLWILVLLLSCLSGKSAYAATS to MRKKCSVCLWILVLLLSCKKRKKRAYAATS, the AmyQ secretion efficiency rises from 2.64 to 6.88.

First: MMKKGLLAGALTATVLFGTCAVDVPGIISPKTAEAAKR
Second: MLCVMMLLFSAIAKRRVSAQAKDQ
The AmyQ secretion efficiency of the first is lower: 4.03 for the first, 7.83 for the second.

Going from MKKWMAGLFLAAAVLLCLMVPQQLQGASS to MKKVLMAFIICLSLILSVLAAPPSGAKQESV, the AmyQ secretion efficiency falls from 5.67 to 2.57.

Going from MKKVLMAFIICLSLILSGLAAPPSGAKAESV to MKNMSCKLRKKKTLFFSFLTIGPLAHAQNS, the AmyQ secretion efficiency rises from 2.28 to 6.98.

Compared with MRKLKRVLLLLVTGLFMSLFAVTATASAQTG, MRKKLKWLSFLLGFIILLFLFKKKFSNNDS is higher in AmyQ secretion efficiency: 1.02 for the first, 7.77 for the second.

Compared with MKKGIIRQSQSQTGLFFALSTGITGVQAAPA, MRGKSAVLLSLIMLIAGFLISFSFKK is lower in AmyQ secretion efficiency: 7.14 for the first, 6.28 for the second.

Going from MKLWMRKTLRRLFTIVTFGLVSPPAALMADKP to MKLKSKLLLSCLALSTVFVATTIWNAPTH, the AmyQ secretion efficiency falls from 7.18 to 6.19.

First: MFNRLFRVCFLAALIMAFTLPNSVYMQKP
Second: MKLSVKIAGVLTVAAAAMTAKMYLTAKGN
The AmyQ secretion efficiency of the first is lower: 7.02 for the first, 7.31 for the second.

Compared with MHLIRAAGAVCLAVVLIRFNEDQHQAEGENT, MKKRKRRNFKRFIAAFLVLALMISLVPADVLAAKR is higher in AmyQ secretion efficiency: 5.07 for the first, 5.17 for the second.

In the case of MKKWMAGLFLAAAVLLCLMVPQQIQGASS, the AmyQ secretion efficiency was 4.93 and 4.6 and 5.33.

From the supplement of paper PMC9942255
